Test results as given in US20180305449A1 (ONCOMED PHARMACEUTICALS, published 2018).
Numbering of substitutions follows the chain as printed. Read-outs that look alike come from different tables or passages of the source. Blank lines part the entries; values can stand above or below the binder they belong to.

What was measured:
[1] = biological target: T1, Recombinant mouse VEGF165 (mouse, UniProt Q00731-2 27-190); assay: SPR (Biacore 2000), biotinylated mouse VEGF165 on streptavidin chip, antibody as analyte
T1 construct: also called mVEGF
T1 sequence (looked up): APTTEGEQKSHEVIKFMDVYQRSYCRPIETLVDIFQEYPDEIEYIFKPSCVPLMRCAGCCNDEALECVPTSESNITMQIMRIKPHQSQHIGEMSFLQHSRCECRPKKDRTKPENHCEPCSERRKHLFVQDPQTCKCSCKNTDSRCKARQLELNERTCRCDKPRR
Procedure: (§1) The KDs of parental antibodies anti-VEGF 219R45 (IgG format), anti-DLL4 21R79 (IgG format), anti-DLL4 21M18 (IgG format) and bispecific antibodies 219R45-MB-21M18 and 219R45-MB-21R79 were determined using a Biacore 2000 system from Biacore LifeSciences (GE Healthcare). Recombinant human DLL4-Fc or mouse DLL4-Fc proteins were immobilized on CM5 carboxyl chips using standard amine-based chemistry (NHS/EDC) and blocked with ethanolamine Recombinant human VEGF₁₆₅ or mouse VEGF₁₆₅ were biotinylated and immobilized on streptavidin chips. The antibodies were serially diluted 2-fold from 100 nM to 0.78 nM in HBS-P (0.01M HEPES pH7.4, 0.15M NaCl, 0.005% v/v Polysorbate 20). For each antibody, all 8 dilutions were sequentially injected over a specific chip. Kinetic data were collected over time and were fit using the simultaneous global fit equation to yield affinity constants (KD values) for each bispecific antibody.

[2] = biological target: T2, Recombinant human DLL4-Fc (human, UniProt Q9NR61 27-522, limits assumed); assay: HTRF bridging assay: Europium cryptate-labeled hVEGF165 and d2-labeled hDLL4-Fc; signal needs both bound at once
T2 construct: also called hDLL4; hDLL4-Fc; not shown: Fc portion
T2 sequence (Q9NR61 27-522 limits assumed): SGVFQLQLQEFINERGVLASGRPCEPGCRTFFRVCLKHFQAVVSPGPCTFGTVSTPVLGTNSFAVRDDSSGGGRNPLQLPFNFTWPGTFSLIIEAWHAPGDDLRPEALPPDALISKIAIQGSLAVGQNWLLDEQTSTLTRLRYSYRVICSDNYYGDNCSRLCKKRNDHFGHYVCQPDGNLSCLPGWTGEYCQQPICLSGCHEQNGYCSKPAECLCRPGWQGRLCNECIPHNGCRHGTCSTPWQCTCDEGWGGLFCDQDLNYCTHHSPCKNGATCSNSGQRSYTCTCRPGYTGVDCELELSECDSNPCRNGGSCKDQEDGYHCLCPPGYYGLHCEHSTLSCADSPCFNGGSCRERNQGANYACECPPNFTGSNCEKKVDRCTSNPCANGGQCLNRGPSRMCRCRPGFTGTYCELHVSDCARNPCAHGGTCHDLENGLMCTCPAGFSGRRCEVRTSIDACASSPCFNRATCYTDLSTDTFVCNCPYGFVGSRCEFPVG
Procedure: (§2) To characterize the binding capabilities of certain antibodies and/or antibody mixtures to both VEGF and DLL4, homogeneous time resolved fluorescence (HTRF) assays were performed. Antibodies tested were anti-VEGF/anti-DLL4 bispecific antibodies 219R45-MB-21M18 and 219R45-MB-21R79, parental antibodies 219R45 (anti-VEGF), 21M18 (anti-DLL4), 21R79 (anti-DLL4), a combination of 219R45 and 21M18, or a combination of 219R45 and 21R79. The antibodies or antibody mixtures were serially diluted 2-fold from 3000 nM to 2.9 nM in binding buffer (1×PBS, 0.1% gelatin, 0.1% Polysorbate 20, 400 mM potassium fluoride) and placed in a white 96-well plate. An equal volume of solution containing 4 μg/ml of d2-labeled hDLL4-Fc and 21.4 ng/ml Europium crypate-labeled hVEGF₁₆₅ was added to each well for a final volume of 100 μl (final concentrations of acceptor and donor fluorophores were 2 μg/ml and 10.7 ng/ml, respectively). The assay plates were incubated for 2 hours to overnight and read on a SpectraMax M5e Microplate reader (Molecular Devices, Sunnyvale Calif.) at an excitation wavelength of 314 nm.

[3] = biological target: T3, Recombinant human VEGF165 (human, UniProt P15692-4 27-191); assay: SPR (Biacore 2000), biotinylated human VEGF165 on streptavidin chip, antibody as analyte
T3 construct: also called hVEGF; hVEGF165
Procedure: as §1

[4] = biological target: T3, Recombinant human VEGF165; assay: HTRF bridging assay: Europium cryptate-labeled hVEGF165 and d2-labeled hDLL4-Fc; signal needs both bound at once
Procedure: as §2

[5] = biological target: T2, Recombinant human DLL4-Fc; assay: SPR (Biacore 2000), human DLL4-Fc amine-coupled on CM5 chip, antibody as analyte
Procedure: as §1

[6] = biological target: T2, Recombinant human DLL4-Fc; assay: as above; remark: listed apart in the source
Procedure: as §1
Several additional anti-DLL4 antibodies were identified that had binding affinities intermediate to the KDs of 21M18 and 21R79. Two of these anti-DLL4 antibodies were used to produce anti-VEGF/anti-DLL4 bispecific antibodies 219R45-MB-21R75 and 219R45-MB-21R83. Using the Biacore 2000 system as described above, the KDs of the bispecific antibodies 219R45-MB-21R75 and 219R45-MB-21R83 to human DLL4 were determined.

biotin-DLL4-hFc [7] = biological target: T4, biotin-DLL4-hFc (UniProt Q9NR61 27-522, limits assumed, biotinylated (site not stated)); assay: bispecific sandwich ELISA: antibody pre-incubated with 2 ug/ml biotin-DLL4-hFc, captured on VEGF-coated plate, detected with streptavidin-HRP
T4 construct: not shown: human Fc (hFc)
T4 sequence (Q9NR61 27-522 limits assumed): as above
Procedure: (§3) FIG. 7. Bispecific antibody ELISA. Bispecific antibodies 219R45-MB-21M18, 219R45-MB-21R79, 219R45-MB-21R75, and 219R45-MB-21R83 were diluted in blocking buffer (lx PBS, 0.1% gelatin, 0.1% Polysorbate-20, pH 7.4) containing 2 μg/ml biotin-DLL4-hFc. The antibodies were serially diluted 3-fold from 500 ng/ml to 0.008 ng/ml. The antibody samples were incubated for 2 hours in blocking buffer containing the biotin-DLL4-hFc. After incubation, the antibody samples were transferred to a VEGF-coated assay plate (100 ul/well) and incubated for 2 hours. Streptavidin-HRP was added to each well and incubated for 1 hr. TMB substrate was added to the wells with a 10 minute color development and the reaction was stopped with 2M sulfuric acid. Absorbance was read at 450-650 nm and the data analyzed using the 4-parameter fit within the Softmax Pro analysis program.
as §3, with “VEGF (ATGEN, South Korea) was coated onto Nunc maxisorb plates at 2 ug/ml (100 μl/well) and incubated overnight at 2-8° C. Bispecific” for “FIG. 7. Bispecific antibody ELISA. Bispecific”, “to the” for “to a”, “Streptavidin-HRP (Jackson ImmunoResearch, West Grove, Pa.)” for “Streptavidin-HRP”, “analysis program (Molecular Devices, Sunnyvale, Calif.).” for “analysis program.”

biotin-DLL4-hFc [8] = biological target: T4, biotin-DLL4-hFc; assay: Bispecific bridging ELISA: antibody pre-incubated with biotin-DLL4-hFc, captured on VEGF (ATGEN)-coated plate, streptavidin-HRP; potency relative to a reference anti-VEGF/anti-DLL4 bispecific antibody
Procedure: as §3, with “VEGF (ATGEN, South Korea) was coated onto Nunc maxisorb plates at 2 ug/ml (100 μl/well) and incubated overnight at 2-8° C. Bispecific” for “FIG. 7. Bispecific antibody ELISA. Bispecific”, “to the” for “to a”, “Streptavidin-HRP (Jackson ImmunoResearch, West Grove, Pa.)” for “Streptavidin-HRP”, “analysis program (Molecular Devices, Sunnyvale, Calif.).” for “analysis program.”

- Kd [1]: 22.9 nM
- binding result [2]: no binding
- Kd [3]: 0.67 nM
B1: anti-VEGF antibody 219R45 (parental, IgG format) (antibody, V domains shown)
VH: QVQLVQSGAEVKKPGASVKVSCKASGYTFTNYWMHWVRQAPGQGLEWMGDINPSNGRTSYKEKFKRRVTLSVDKSSSTAYMELSSLRSEDTAVYFCTIHYDDKYYPLMDYWGQGTLVTVSS
VL: DIVMTQSPDSLAVSLGERATISCRASESVDNYGISFMKWFQQKPGQPPKLLIYAASNQGSGVPDRFSGSGSGTDFTLTISSLQAEDVAVYYCQQSKEVPWTFGGGTKVEIKR
notes: Tested as the bivalent parental antibody in IgG format; also called parental anti-VEGF antibody 219R45

- binding result [4]: no binding
- Kd [5]: < 0.1 nM
B2: anti-DLL4 antibody 21R79 (parental, IgG format) (antibody, V domains shown)
VH: QVQLVQSGAEVKKPGASVKISCKASGYSFTAYYIHWVKQAPGQGLEWIGYIANYNRATNYNQKFKGRVTFTTDTSTSTAYMELRSLRSDDTAVYYCARDYDYDVGMDYWGQGTLVTVSS
VL: B1 VL
notes: Tested as the parental antibody in IgG format
- binding result [1]: no binding (tested: 100 nM (highest concentration injected))

- Kd [6]: 1.3 nM
- EC50 (read off the curve) (biotin-DLL4-hFc [7]): ~1 ng/mL
- Relative Potency (%) (biotin-DLL4-hFc [8]): 222%
B3: anti-VEGF/anti-DLL4 bispecific antibody 219R45-MB-21R83 (bispecific antibody, human IgG2)
heavy 1: QVQLVQSGAEVKKPGASVKVSCKASGYTFTNYWMHWVRQAPGQGLEWMGDINPSNGRTSYKEKFKRRVTLSVDKSSSTAYMELSSLRSEDTAVYFCTIHYDDKYYPLMDYWGQGTLVTVSSASTKGPSVFPLAPCSRSTSESTAALGCLVKDYFPEPVTVSWNSGALTSGVHTFPAVLQSSGLYSLSSVVTVPSSNFGTQTYTCNVDHKPSNTKVDKTVERKCCVECPPCPAPPVAGPSVFLFPPKPKDTLMISRTPEVTCVVVDVSHEDPEVQFNWYVDGVEVHNAKTKPREEQFNSTFRVVSVLTVVHQDWLNGKEYKCKVSNKGLPAPIEKTISKTKGQPREPQVYTLPPSREKMTKNQVSLTCLVKGFYPSDIAVEWESNGQPENNYKTTPPMLKSDGSFFLYSKLTVDKSRWQQGNVFSCSVMHEALHNHYTQKSLSLSPGK
heavy 2: QVQLVQSGAEVKKPGASVKISCKASGYSFTAYYIHWVKQAPGQGLEWIGYISNYNRATNYNQKFKGRVTFTTDTSTSTAYMELRSLRSDDTAVYYCARDYDYDVGMDYWGQGTLVTVSSASTKGPSVFPLAPCSRSTSESTAALGCLVKDYFPEPVTVSWNSGALTSGVHTFPAVLQSSGLYSLSSVVTVPSSNFGTQTYTCNVDHKPSNTKVDKTVERKCCVECPPCPAPPVAGPSVFLFPPKPKDTLMISRTPEVTCVVVDVSHEDPEVQFNWYVDGVEVHNAKTKPREEQFNSTFRVVSVLTVVHQDWLNGKEYKCKVSNKGLPAPIEKTISKTKGQPREPQVYTLPPSREEMTKNQVSLTCLVEGFYPSDIAVEWESNGQPENNYKTTPPMLDSDGSFFLYSELTVDKSRWQQGNVFSCSVMHEALHNHYTQKSLSLSPGK
light: DIVMTQSPDSLAVSLGERATISCRASESVDNYGISFMKWFQQKPGQPPKLLIYAASNQGSGVPDRFSGSGSGTDFTLTISSLQAEDVAVYYCQQSKEVPWTFGGGTKVEIKRTVAAPSVIFPPSDEQLKSGTASVVCLLNNFYPREAKVQWKVDNALQSGNSQESVTEQDSKDSTYSLSSTLTLSKADYEKHKVYACEVTHQGLSSPVTKSFNRGEC
notes: Monovalent/bispecific IgG2 heterodimer with charge-modified CH3 domains and two identical light chains

- Kd [6]: 5.1 nM
- EC50 (read off the curve) (biotin-DLL4-hFc [7]): ~0.8 ng/mL
- Relative Potency (%) (biotin-DLL4-hFc [8]): 422%
B4: anti-VEGF/anti-DLL4 bispecific antibody 219R45-MB-21R75 (bispecific antibody, human IgG2)
heavy 1: B3 heavy 1
heavy 2: B3 heavy 2 with S52A, N53G, N55K, R56D
light: B3 light
notes: as for B3

- Kd [6]: 16 nM
- Kd [1]: 25.5 nM
- Kd [3]: 0.36 nM
- EC50 (read off the curve) (biotin-DLL4-hFc [7]): ~5 ng/mL
- Relative Potency (%) (biotin-DLL4-hFc [8]): 67%
- Kd [5]: 16 nM
B5: anti-VEGF/anti-DLL4 bispecific antibody 219R45-MB-21M18 (bispecific antibody, human IgG2)
heavy 1: B3 heavy 1
heavy 2: B3 heavy 2 with N53S, R56G
light: B3 light
notes: Monovalent/bispecific (MB) IgG2 heterodimer with charge-modified CH3 domains and two identical light chains

- binding result [4]: no binding
- Kd [5]: < 0.1 nM
B6: anti-DLL4 antibody 21M18 (parental, IgG format) (antibody, V domains shown)
VH: B2 VH with A52S, N53S, R56G
VL: DIVMTQSPDSLAVSLGERATISCRASESVDNYGISFMKWFQQKPGQPPKLLIYAASNQGSGVPDRFSGSGSGTDFTLTISSLQAEDVAVYYCQQSKEVPWTFGGGTKVEIK
notes: Tested in IgG format; also called anti-hDLL4 antibody 21M18
- binding result [1]: no binding (tested: 100 nM (highest concentration injected))
